One molecule from patent publication US20180141977A1 (NORWEGIAN UNIVERSITY OF SCIENCE AND TECHNOLOGY NTNU, published 2018) can be followed below.

In this assay the target is T1, β-clamp protein from E. coli (E. coli, UniProt P0A988 1-366, labeled with a fluorescent molecule (site not stated)).
T1 construct: Fluorescently labelled for microscale thermophoresis; also called sliding clamp
The assay can be described thus: microscale thermophoresis, fluorescently labelled β-clamp, peptide titrated (table cell the 66th table, row 38, column 4 prints 'Nd'). A general note: In MST a laser heats a spot of the sample, and binding alters the fluorescence response.

T1 sequence (P0A988 whole entry): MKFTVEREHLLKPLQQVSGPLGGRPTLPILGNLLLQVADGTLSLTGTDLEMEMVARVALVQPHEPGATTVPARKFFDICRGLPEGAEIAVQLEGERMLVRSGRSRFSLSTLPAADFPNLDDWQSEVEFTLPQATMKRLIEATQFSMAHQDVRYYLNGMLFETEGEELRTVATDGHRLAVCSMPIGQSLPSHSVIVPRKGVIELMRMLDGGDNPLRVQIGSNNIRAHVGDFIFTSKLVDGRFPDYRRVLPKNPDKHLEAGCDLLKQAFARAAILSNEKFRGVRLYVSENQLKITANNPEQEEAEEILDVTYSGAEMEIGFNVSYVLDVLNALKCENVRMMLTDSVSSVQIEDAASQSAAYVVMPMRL

B1: R11 peptide (SEQ ID NO: 337) (peptide)
peptide: RRRRRRRRRRR
notes: Control peptide without APIM motif; also called cell penetrating peptide
In the case of B1, the binding result is recorded as “no binding”.
